Laboratory results from patent publication US20150126713A1 (Astellas, published 2015).

T1: human IL-23R-mouse Fc fusion protein (human; mouse, UniProt Q5VWK5 24-353)
T1 construct: Expressed in FreeStyle 293 cells; also called human IL-23R-Fc fusion protein; not shown: Fc region of mouse immunoglobulin IgG2a as encoded by vector pFUSE-mIgG2A-Fc2 (InvivoGen); limits and any linker not sta
T1 sequence: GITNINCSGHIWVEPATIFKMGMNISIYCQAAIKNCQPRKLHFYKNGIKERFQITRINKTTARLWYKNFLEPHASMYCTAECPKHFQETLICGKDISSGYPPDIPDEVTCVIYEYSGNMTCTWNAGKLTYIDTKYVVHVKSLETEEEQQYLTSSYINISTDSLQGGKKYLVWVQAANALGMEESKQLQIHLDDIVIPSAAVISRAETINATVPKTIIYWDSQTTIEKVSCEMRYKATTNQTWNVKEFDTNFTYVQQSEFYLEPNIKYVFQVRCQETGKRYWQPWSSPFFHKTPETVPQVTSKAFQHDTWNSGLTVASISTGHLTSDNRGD

T2: human IL-23R on Kit-225 cells (human, UniProt Q5VWK5 24-629)
T2 sequence: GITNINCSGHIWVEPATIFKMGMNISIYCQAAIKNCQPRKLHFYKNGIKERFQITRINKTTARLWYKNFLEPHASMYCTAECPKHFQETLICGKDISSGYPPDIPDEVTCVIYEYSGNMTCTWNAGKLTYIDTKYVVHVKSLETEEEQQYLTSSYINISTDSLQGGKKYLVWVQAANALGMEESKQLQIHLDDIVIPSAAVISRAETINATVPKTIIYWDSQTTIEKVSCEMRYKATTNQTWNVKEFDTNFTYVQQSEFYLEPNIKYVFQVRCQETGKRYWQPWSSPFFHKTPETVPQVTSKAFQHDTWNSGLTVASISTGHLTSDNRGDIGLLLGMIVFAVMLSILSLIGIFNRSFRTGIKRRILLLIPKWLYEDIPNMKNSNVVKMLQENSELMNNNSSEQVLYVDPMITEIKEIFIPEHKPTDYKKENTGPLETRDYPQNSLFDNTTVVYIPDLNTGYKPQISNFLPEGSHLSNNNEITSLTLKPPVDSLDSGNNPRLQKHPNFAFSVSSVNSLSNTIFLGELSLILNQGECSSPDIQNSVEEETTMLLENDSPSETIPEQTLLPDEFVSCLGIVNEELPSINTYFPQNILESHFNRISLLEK

B1: fully human 25-3-1 (antibody, human IgG1, kappa, V domains shown)
VH: QVQLQESGPGLVKPSQTLSLTCSVSGGSIDSGDHYWTWIRQHPGKGLEWIGYIYSSGHTYYSPSLKSRVTISVDTSKNQFSLRLSSVTAADTAVYYCARVGDYEWFDTWGQGTLVTVSS
VL: DIVMTQSPDSLAVSLGERATINCKSSQTILYPSNNMNYLGWYQQRAGQSPRLLIYWASTRESGVPDRFSGSGSGTDFTLTISSLQAEDVAVYYCQQYYSSLPTFGQGTKVEIKR
notes: human Ig gamma1 / kappa
B2: 25-3 (chimeric) (antibody, V domains shown)
VH: QVQLQESGPGQVKPSQTLSLTCSVSGGSIDSGDHYWTWIRQHPGEVLEWIGYIYSSGHTYYSPSLKSRLTMSLDTSKNQFSLRLSSVTAADTAVYYCARVGDYEWFDTWGQGTLVTVSS
VL: DIVMTQSPDSLAVSLGERATINCKSSQTILYPSNNMNYLGWYQQRAGQSPRLLIYWASTRESGVPDRFSGSGSGTDFTLTISSLQAEDVAVYYCQQYYSSLPTFGQGTKVEIKR
notes: also called antibody (chimeric antibody) named 25-3
B3: fully human 25-3-4 (antibody, human IgG1, kappa, V domains shown)
VH: QVQLQESGPGLVKPSQTLSLTCSVSGGSISSGDHYWTWIRQHPGKGLEWIGYIYSSGHTYYSPSLKSRVTISVDTSKNQFSLRLSSVTAADTAVYYCARVGDYEWFDTWGQGTLVTVSS
VL: DIVMTQSPDSLAVSLGERATINCKSSQTILYPSNNMNYLGWYQQKPGQSPRLLIYWASTRESGVPDRFSGSGSGTDFTLTISSLQAEDVAVYYCQQYYSSLPTFGQGTKVEIKR
notes: human Ig gamma1 / kappa
B4: fully human 25-3 (antibody, human IgG1, kappa, V domains shown)
VH: QVQLQESGPGQVKPSQTLSLTCSVSGGSIDSGDHYWTWIRQHPGEVLEWIGYIYSSGHTYYSPSLKSRLTMSLDTSKNQFSLRLSSVTAADTAVYYCARVGDYEWFDTWGQGTLVTVSS
VL: DIVMTQSPDSLAVSLGERATINCKSSQTILYPSNNMNYLGWYQQRAGQSPRLLIYWASTRESGVPDRFSGSGSGTDFTLTISSLQAEDVAVYYCQQYYSSLPTFGQGTKVEIKR
notes: Human Ig gamma1 / human kappa constant regions; expressed in CHO-K1SV cells; also called fully human antibody of 25-3
B5: fully human 25-3-3 (antibody, human IgG1, kappa, V domains shown)
VH: QVQLQESGPGLVKPSQTLSLTCSVSGGSISSGDHYWTWIRQHPGKGLEWIGYIYSSGHTYYSPSLKSRVTISVDTSKNQFSLRLSSVTAADTAVYYCARVGDYEWFDTWGQGTLVTVSS
VL: DIVMTQSPDSLAVSLGERATINCKSSQTILYPSNNMNYLGWYQQRAGQSPRLLIYWASTRESGVPDRFSGSGSGTDFTLTISSLQAEDVAVYYCQQYYSSLPTFGQGTKVEIKR
notes: human Ig gamma1 / kappa
B6: fully human 25-3-2 (antibody, human IgG1, kappa, V domains shown)
VH: QVQLQESGPGLVKPSQTLSLTCSVSGGSIDSGDHYWTWIRQHPGKGLEWIGYIYSSGHTYYSPSLKSRVTISVDTSKNQFSLRLSSVTAADTAVYYCARVGDYEWFDTWGQGTLVTVSS
VL: DIVMTQSPDSLAVSLGERATINCKSSQTILYPSNNMNYLGWYQQKPGQSPRLLIYWASTRESGVPDRFSGSGSGTDFTLTISSLQAEDVAVYYCQQYYSSLPTFGQGTKVEIKR
notes: human Ig gamma1 / kappa

Legend:
[1] = target: T1, human IL-23R-mouse Fc fusion protein; test: antigen ELISA, human IL-23R-mouse Fc immobilized, HRP anti-human IgG, chemiluminescence
Procedure: (§1) The present inventors used an antigen ELISA to measure the antigen-specific binding activities of the fully human antibodies constructed in the above-described Example. A human or monkey IL-23R-Fc fusion protein was immobilized onto a Maxisorp 384-well plate (Nunc, Inc.) at a concentration of 500 ng/mL. A blocking agent (Blocking One; Nacalai Tesque, Inc.) was added thereto and allowed to stand at room temperature for 1 hour, followed by washing twice with a wash buffer [TPBS: 0.05% Tween-20-containing phosphate buffered saline (PBS)], and each of the purified antibody samples was suitably serially diluted and added thereto. Incubation was performed at room temperature for 1 hour, followed by washing four times with TPBS, and HRP-labeled anti-human IgG antibody (DAKO) which was 2000-fold diluted with dilution buffer (Blocking One which was two-fold diluted with PBS) was added as secondary antibody. Incubation was performed at room temperature for 1 hour, followed by washing four times with a washing buffer. […] of BM-chemiluminescence ELISA substrate (POD) (Roche Diagnostics) that is a reagent for detecting chemiluminescence was added thereto and the amount of chemiluminescence was measured with an EnVision counter (Perkin Elmer). Each of the antibodies was tested in duplicate, and the EC 50 was analyzed by curve fitting.

[2] = target: T3, monkey IL-23R-mouse Fc fusion protein (monkey; mouse); test: antigen ELISA, monkey IL-23R-mouse Fc immobilized, HRP anti-human IgG, chemiluminescence
T3 construct: extracellular domain; also called monkey IL-23R-Fc fusion protein
Procedure: as §1

[3] = target: T2, human IL-23R on Kit-225 cells; test: cell-based or functional assay
[4] = target: T1, human IL-23R-mouse Fc fusion protein; test: antigen ELISA, human IL-23R-mouse Fc immobilized, HRP anti-mouse Ig, chemiluminescence
Procedure: (§2) The present inventors used an antigen ELISA to measure the antigen-specific binding activity of the antibody. The human or monkey IL-23R-Fc fusion protein was immobilized onto a Maxisorp 384-well plate (Nunc, Inc.) at a concentration of 500 ng/mL. A blocking agent (Blocking One; Nacalai Tesque, Inc.) was added thereto and allowed to stand at room temperature for 1 hour, followed by washing twice with a wash buffer [TPBS: a phosphate buffered saline (PBS) containing 0.05% Tween-20], and the purified antibody samples were suitably serially diluted and added thereto. Incubation was performed at room temperature for 1 hour, followed by washing four times with TPBS, and HRP-rabbit anti-mouse Ig antibody (DAKO) which was 2000-fold diluted with a dilution buffer (Blocking One which was two-fold diluted with PBS) was added. Incubation was performed at room temperature for 1 hour, followed by washing four times with a wash buffer. 40 μL of BM-chemiluminescence ELISA substrate (POD) (Roche Diagnostics), which is a reagent for detecting chemical luminescence, was added, and the amount of chemiluminescence was measured with an EnVision counter (Perkin Elmer). Each antibody was tested in duplicate and the EC50 was analyzed by curve fitting. […]

[5] = target: T3, monkey IL-23R-mouse Fc fusion protein; test: antigen ELISA, monkey IL-23R-mouse Fc immobilized, HRP anti-mouse Ig, chemiluminescence
Procedure: as §2

| Binder | EC50 [1] [µg/mL] | EC50 [2] [µg/mL] | Human IL-23-inducible Kit-225 cell proliferation inhibitory activity, IC50 [3] [µg/mL] | EC50 [4] [µg/mL] | EC50 [5] [µg/mL] |
| --- | --- | --- | --- | --- | --- |
| B1 | 0.0176 | 0.0124 | 0.00309 | – | – |
| B2 | – | – | – | 0.021 | 0.028 |
| B3 | 0.0223 | 0.0121 | 0.00348 | – | – |
| B4 | 0.019 | 0.0123 | 0.00225 | – | – |
| B5 | 0.0221 | 0.0121 | 0.00568 | – | – |
| B6 | 0.0164 | 0.0122 | 0.00266 | – | – |
